Experimental data taken from patent publication US20240124865.

T1: FRETS-VWF73 substrate (VWF fragment comprising VWFA2 domain residues 1596 to 1668)
T1 chain: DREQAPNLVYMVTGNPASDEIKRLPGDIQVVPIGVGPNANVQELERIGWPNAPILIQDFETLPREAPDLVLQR


Biological target: T1, FRETS-VWF73 substrate (VWF fragment …)

Row | Protein | proteolytic activity, FRETS-VWF73 assay | proteolytic activity, FRETS-VWF73 assay, fold increase
1 | ADAMTS13 A1144I variant (Exemplified A1144I variant) (protein) AAGGILHLELLVAVGPDVFQAHQEDTERYVLTNLNIGAELLRDPSLGAQFRVHLVKMVILTEPEGAPNITANLTSSLLSVCGWSQTINPEDDTDPGHADLVLYITRFDLELPDGNRQVRGVTQLGGACSPTWSCLITEDTGFDLGVTIAHEIGHSFGLEHDGAPGSGCGPSGHVMASDGAAPRAGLAWSPCSRRQLLSLLSAGRARCVWDPPRPQPGSAGHPPDAQPGLYYSANEQCRVAFGPKAVACTFAREHLDMCQALSCHTDPLDQSSCSRLLVPLLDGTECGVEKWCSKGRCRSLVELTPIAAVHGRWSSWGPRSPCSRSCGGGVVTRRRQCNNPRPAFGGRACVGADLQAEMCNTQACEKTQLEFMSQQCARTDGQPLRSSPGGASFYHWGAAVPHSQGDALCRHMCRAIGESFIMKRGDSFLDGTRCMPSGPREDGTLSLCVSGSCRTFGCDGRMDSQQVWDRCQVCGGDNSTCSPRKGSFTAGRAREYVTFLTVTPNLTSVYIANHRPLFTHLAVRIGGRYVVAGKMSISPNTTYPSLLEDGRVEYRVALTEDRLPRLEEIRIWGPLQEDADIQVYRRYGEEYGNLTRPDITFTYFQPKPRQAWVWAAVRGPCSVSCGAGLRWVNYSCLDQARKELVETVQCQGSQQPPAWPEACVLEPCPPYWAVGDFGPCSASCGGGLRERPVRCVEAQGSLLKTLPPARCRAGAQQPAVALETCNPQPCPARWEVSEPSSCTSAGGAGLALENETCVPGADGLEAPVTEGPGSVDEKLPAPEPCVGMSCPPGWGHLDATSAGEKAPSPWGSIRTGAQAAHVWTPAAGSCSVSCGRGLMELRFLCMDSALRVPVQEELCGLASKPGSRREVCQAVPCPARWQYKLAACSVSCGRGVVRRILYCARAHGEDDGEEILLDTQCQGLPRPEPQEACSLEPCPPRWKVMSLGPCSASCGLGTARRSVACVQLDQGQDVEVDEAACAALVRPEASVPCLIADCTYRWHVGTWMECSVSCGDGIQRRRDTCLGPQAQAPVPADFCQHLPKPVTVRGCWAGPCVGQGTPSLVPHEEIAAPGRTTATPAGASLEWSQARGLLFSPAPQPRRLLPGPQENSVQSSACGRQHLEPTGTIDMRGPGQADCAVAIGRPLGEVVTLRVLESSLNCSAGDMLLLWGRLTWRKMCRKLLDMTFSSKTNTLVVRQRCGRPGGGVLLRYGSQLAPETFYRECDMQLFGPWGEIVSPSLSPATSNAGGCRLFINVAPHARIAIHALATNMGAGTEGANASYILIRDTHSLRTTAFHGQQVLYWESESSQAEMEFSEGFLKAQASLRGQYWTLQSWVPEMQDPQSWKGKEGTSRGPFEQKLISEEDLNMHTGHHHHHH | induces a similar constitutive activity to that seen with the A1144V, A1146V variants | –
2 | ADAMTS13 P1180I variant (Exemplified P1180I variant) (protein) AAGGILHLELLVAVGPDVFQAHQEDTERYVLTNLNIGAELLRDPSLGAQFRVHLVKMVILTEPEGAPNITANLTSSLLSVCGWSQTINPEDDTDPGHADLVLYITRFDLELPDGNRQVRGVTQLGGACSPTWSCLITEDTGFDLGVTIAHEIGHSFGLEHDGAPGSGCGPSGHVMASDGAAPRAGLAWSPCSRRQLLSLLSAGRARCVWDPPRPQPGSAGHPPDAQPGLYYSANEQCRVAFGPKAVACTFAREHLDMCQALSCHTDPLDQSSCSRLLVPLLDGTECGVEKWCSKGRCRSLVELTPIAAVHGRWSSWGPRSPCSRSCGGGVVTRRRQCNNPRPAFGGRACVGADLQAEMCNTQACEKTQLEFMSQQCARTDGQPLRSSPGGASFYHWGAAVPHSQGDALCRHMCRAIGESFIMKRGDSFLDGTRCMPSGPREDGTLSLCVSGSCRTFGCDGRMDSQQVWDRCQVCGGDNSTCSPRKGSFTAGRAREYVTFLTVTPNLTSVYIANHRPLFTHLAVRIGGRYVVAGKMSISPNTTYPSLLEDGRVEYRVALTEDRLPRLEEIRIWGPLQEDADIQVYRRYGEEYGNLTRPDITFTYFQPKPRQAWVWAAVRGPCSVSCGAGLRWVNYSCLDQARKELVETVQCQGSQQPPAWPEACVLEPCPPYWAVGDFGPCSASCGGGLRERPVRCVEAQGSLLKTLPPARCRAGAQQPAVALETCNPQPCPARWEVSEPSSCTSAGGAGLALENETCVPGADGLEAPVTEGPGSVDEKLPAPEPCVGMSCPPGWGHLDATSAGEKAPSPWGSIRTGAQAAHVWTPAAGSCSVSCGRGLMELRFLCMDSALRVPVQEELCGLASKPGSRREVCQAVPCPARWQYKLAACSVSCGRGVVRRILYCARAHGEDDGEEILLDTQCQGLPRPEPQEACSLEPCPPRWKVMSLGPCSASCGLGTARRSVACVQLDQGQDVEVDEAACAALVRPEASVPCLIADCTYRWHVGTWMECSVSCGDGIQRRRDTCLGPQAQAPVPADFCQHLPKPVTVRGCWAGPCVGQGTPSLVPHEEAAAPGRTTATPAGASLEWSQARGLLFSPAPQPRRLLIGPQENSVQSSACGRQHLEPTGTIDMRGPGQADCAVAIGRPLGEVVTLRVLESSLNCSAGDMLLLWGRLTWRKMCRKLLDMTFSSKTNTLVVRQRCGRPGGGVLLRYGSQLAPETFYRECDMQLFGPWGEIVSPSLSPATSNAGGCRLFINVAPHARIAIHALATNMGAGTEGANASYILIRDTHSLRTTAFHGQQVLYWESESSQAEMEFSEGFLKAQASLRGQYWTLQSWVPEMQDPQSWKGKEGTSRGPFEQKLISEEDLNMHTGHHHHHH | – | Induces greater than 10-fold increase in activity
3 | ADAMTS13 A1146I variant (Exemplified A1146I variant) (protein) AAGGILHLELLVAVGPDVFQAHQEDTERYVLTNLNIGAELLRDPSLGAQFRVHLVKMVILTEPEGAPNITANLTSSLLSVCGWSQTINPEDDTDPGHADLVLYITRFDLELPDGNRQVRGVTQLGGACSPTWSCLITEDTGFDLGVTIAHEIGHSFGLEHDGAPGSGCGPSGHVMASDGAAPRAGLAWSPCSRRQLLSLLSAGRARCVWDPPRPQPGSAGHPPDAQPGLYYSANEQCRVAFGPKAVACTFAREHLDMCQALSCHTDPLDQSSCSRLLVPLLDGTECGVEKWCSKGRCRSLVELTPIAAVHGRWSSWGPRSPCSRSCGGGVVTRRRQCNNPRPAFGGRACVGADLQAEMCNTQACEKTQLEFMSQQCARTDGQPLRSSPGGASFYHWGAAVPHSQGDALCRHMCRAIGESFIMKRGDSFLDGTRCMPSGPREDGTLSLCVSGSCRTFGCDGRMDSQQVWDRCQVCGGDNSTCSPRKGSFTAGRAREYVTFLTVTPNLTSVYIANHRPLFTHLAVRIGGRYVVAGKMSISPNTTYPSLLEDGRVEYRVALTEDRLPRLEEIRIWGPLQEDADIQVYRRYGEEYGNLTRPDITFTYFQPKPRQAWVWAAVRGPCSVSCGAGLRWVNYSCLDQARKELVETVQCQGSQQPPAWPEACVLEPCPPYWAVGDFGPCSASCGGGLRERPVRCVEAQGSLLKTLPPARCRAGAQQPAVALETCNPQPCPARWEVSEPSSCTSAGGAGLALENETCVPGADGLEAPVTEGPGSVDEKLPAPEPCVGMSCPPGWGHLDATSAGEKAPSPWGSIRTGAQAAHVWTPAAGSCSVSCGRGLMELRFLCMDSALRVPVQEELCGLASKPGSRREVCQAVPCPARWQYKLAACSVSCGRGVVRRILYCARAHGEDDGEEILLDTQCQGLPRPEPQEACSLEPCPPRWKVMSLGPCSASCGLGTARRSVACVQLDQGQDVEVDEAACAALVRPEASVPCLIADCTYRWHVGTWMECSVSCGDGIQRRRDTCLGPQAQAPVPADFCQHLPKPVTVRGCWAGPCVGQGTPSLVPHEEAAIPGRTTATPAGASLEWSQARGLLFSPAPQPRRLLPGPQENSVQSSACGRQHLEPTGTIDMRGPGQADCAVAIGRPLGEVVTLRVLESSLNCSAGDMLLLWGRLTWRKMCRKLLDMTFSSKTNTLVVRQRCGRPGGGVLLRYGSQLAPETFYRECDMQLFGPWGEIVSPSLSPATSNAGGCRLFINVAPHARIAIHALATNMGAGTEGANASYILIRDTHSLRTTAFHGQQVLYWESESSQAEMEFSEGFLKAQASLRGQYWTLQSWVPEMQDPQSWKGKEGTSRGPFEQKLISEEDLNMHTGHHHHHH | induces a similar constitutive activity to that seen with the A1144V, A1146V variants | –
4 | ADAMTS13 P1180K variant (Exemplified P1180K variant) (protein) AAGGILHLELLVAVGPDVFQAHQEDTERYVLTNLNIGAELLRDPSLGAQFRVHLVKMVILTEPEGAPNITANLTSSLLSVCGWSQTINPEDDTDPGHADLVLYITRFDLELPDGNRQVRGVTQLGGACSPTWSCLITEDTGFDLGVTIAHEIGHSFGLEHDGAPGSGCGPSGHVMASDGAAPRAGLAWSPCSRRQLLSLLSAGRARCVWDPPRPQPGSAGHPPDAQPGLYYSANEQCRVAFGPKAVACTFAREHLDMCQALSCHTDPLDQSSCSRLLVPLLDGTECGVEKWCSKGRCRSLVELTPIAAVHGRWSSWGPRSPCSRSCGGGVVTRRRQCNNPRPAFGGRACVGADLQAEMCNTQACEKTQLEFMSQQCARTDGQPLRSSPGGASFYHWGAAVPHSQGDALCRHMCRAIGESFIMKRGDSFLDGTRCMPSGPREDGTLSLCVSGSCRTFGCDGRMDSQQVWDRCQVCGGDNSTCSPRKGSFTAGRAREYVTFLTVTPNLTSVYIANHRPLFTHLAVRIGGRYVVAGKMSISPNTTYPSLLEDGRVEYRVALTEDRLPRLEEIRIWGPLQEDADIQVYRRYGEEYGNLTRPDITFTYFQPKPRQAWVWAAVRGPCSVSCGAGLRWVNYSCLDQARKELVETVQCQGSQQPPAWPEACVLEPCPPYWAVGDFGPCSASCGGGLRERPVRCVEAQGSLLKTLPPARCRAGAQQPAVALETCNPQPCPARWEVSEPSSCTSAGGAGLALENETCVPGADGLEAPVTEGPGSVDEKLPAPEPCVGMSCPPGWGHLDATSAGEKAPSPWGSIRTGAQAAHVWTPAAGSCSVSCGRGLMELRFLCMDSALRVPVQEELCGLASKPGSRREVCQAVPCPARWQYKLAACSVSCGRGVVRRILYCARAHGEDDGEEILLDTQCQGLPRPEPQEACSLEPCPPRWKVMSLGPCSASCGLGTARRSVACVQLDQGQDVEVDEAACAALVRPEASVPCLIADCTYRWHVGTWMECSVSCGDGIQRRRDTCLGPQAQAPVPADFCQHLPKPVTVRGCWAGPCVGQGTPSLVPHEEAAAPGRTTATPAGASLEWSQARGLLFSPAPQPRRLLKGPQENSVQSSACGRQHLEPTGTIDMRGPGQADCAVAIGRPLGEVVTLRVLESSLNCSAGDMLLLWGRLTWRKMCRKLLDMTFSSKTNTLVVRQRCGRPGGGVLLRYGSQLAPETFYRECDMQLFGPWGEIVSPSLSPATSNAGGCRLFINVAPHARIAIHALATNMGAGTEGANASYILIRDTHSLRTTAFHGQQVLYWESESSQAEMEFSEGFLKAQASLRGQYWTLQSWVPEMQDPQSWKGKEGTSRGPFEQKLISEEDLNMHTGHHHHHH | – | Induces greater than 10-fold increase in activity
